In PMC7810697, “Sarcolipin alters SERCA1a interdomain communication by impairing binding of both calcium and ATP” (Scientific Reports, 2021):
Where “and” joins values, the source holds several entries; their conditions need not be identical. Equal values may be shown once. Ends that are not written are not given here. * marks the point of attachment. Palmitoyl = CCCCCCCCCCCCCCCC(=O)*

What was measured:
[1] = test system: recombinant purified SERCA1a (recS1a); assay: Limited proteolysis with proteinase K (SDS-PAGE); type: biochemical, rabbit (expressed in S. cerevisiae); settings: Ca2.E1 (1 mM calcium) and E2.Tg (EGTA + thapsigargin); recS1a:pSLN 1:10 mole:mole; 0.3 mg/mL proteinase K, 5-30 min, 20 °C
Protocol: Yeast-expressed and purified SERCA1a (recS1a) was supplemented with SLN at a mole:mole ratio of 1:10 recS1a:SLN. In absence of SLN, recS1a was supplemented with 0.07 mg/mL C12E8, an amount that corresponds to the detergent brought with chemically synthesized SLN. After 30 min at 20 °C, samples were supplemented with either 1.1 mM EGTA (Ca^2+free ~ 1 mM), or 50 mM EGTA (Ca^2+free ~ 150 nM) and 0.01 mg/mL Tg. After an additional incubation for 10 min at 20 °C, proteolysis was achieved by addition of 0.3 mg/mL proteinase K. Proteolysis was stopped by addition of 1 mM PMSF and incubation on ice for 10 min. After proteolysis arrest, samples were diluted twice in a 4 M-urea containing denaturation buffer, boiled for 60 s, and about 0.75 µg protein were loaded on a 9% SDS-PAGE prepared in the presence of 1 mM Ca^2+[32]. After electrophoresis, gels were stained with Coomassie blue.

[2] = target: T1, recombinant SERCA1a (recS1a) (Oryctolagus cuniculus, UniProt P04191); assay: Turnover-dependent dephosphorylation kinetics; type: biochemical, rabbit (expressed in S. cerevisiae); settings: for effect on rate of dephosphorylation: after addition of non-radioactive ATP
T1 construct: BAD (biotin acceptor domain) (C, cleaved yes); made in house; host or cells: Saccharomyces cerevisiae
T1 sequence (P04191 1-994 isoform P04191-2): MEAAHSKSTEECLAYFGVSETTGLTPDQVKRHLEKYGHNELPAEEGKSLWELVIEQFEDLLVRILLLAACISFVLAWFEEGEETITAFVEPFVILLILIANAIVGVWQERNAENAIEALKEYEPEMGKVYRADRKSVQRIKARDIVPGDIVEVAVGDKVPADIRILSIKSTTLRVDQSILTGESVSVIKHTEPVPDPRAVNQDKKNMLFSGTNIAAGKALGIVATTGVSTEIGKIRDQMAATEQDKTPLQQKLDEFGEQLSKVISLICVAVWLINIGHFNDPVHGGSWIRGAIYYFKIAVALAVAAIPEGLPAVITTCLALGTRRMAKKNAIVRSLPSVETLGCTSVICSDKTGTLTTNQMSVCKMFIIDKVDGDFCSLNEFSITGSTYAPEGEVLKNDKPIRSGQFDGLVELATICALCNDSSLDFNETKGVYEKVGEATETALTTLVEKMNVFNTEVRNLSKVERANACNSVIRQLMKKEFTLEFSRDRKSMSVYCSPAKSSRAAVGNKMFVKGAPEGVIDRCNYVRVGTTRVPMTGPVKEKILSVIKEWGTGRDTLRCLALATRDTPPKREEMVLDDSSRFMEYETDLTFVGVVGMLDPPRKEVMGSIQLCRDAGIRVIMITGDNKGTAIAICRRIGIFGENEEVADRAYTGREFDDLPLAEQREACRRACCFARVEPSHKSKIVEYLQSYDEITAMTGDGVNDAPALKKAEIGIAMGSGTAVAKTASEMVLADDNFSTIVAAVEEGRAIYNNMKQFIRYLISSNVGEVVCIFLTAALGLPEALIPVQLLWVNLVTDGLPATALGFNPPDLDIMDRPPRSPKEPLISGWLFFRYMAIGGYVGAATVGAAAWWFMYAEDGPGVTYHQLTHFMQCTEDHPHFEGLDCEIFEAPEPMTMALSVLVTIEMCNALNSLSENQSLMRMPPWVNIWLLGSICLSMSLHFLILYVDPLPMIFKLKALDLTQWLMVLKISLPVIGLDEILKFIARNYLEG
Protocol: (§1) Transient formation of the phosphoenzyme intermediate was measured after incubation with [γ^32P]ATP followed by acid quenching, and filtration. For most experiments, 50 µL of enzyme at 10 µg/mL in a buffer containing 50 mM Tes-Tris pH7.5, 1 mM KCl, 5 mM MgCl2, 20% glycerol (w/w) and 0.5 mg/mL DDM, supplemented or not with SLN, was stored on ice. Concentrations of EGTA and calcium are specified in figure legends in order to reach the appropriate [Ca^2+]free and therefore the desired starting state for the ATPase. For kinetics of phosphorylation, we initiate reaction by addition of 2 µM [γ^32P]ATP (5 mCi/µmole), and calcium at 100 µM when specified. Reaction was quenched by addition of 2 mL of cold quenching medium (500 mM TCA + 30 mM H3P0_4) under vigorous mixing, and immediately stored on ice for 20–30 min to improve precipitation, a period of time critical for retention of the precipitate on the filter in presence of detergent. This was followed by filtration on GS filters (Millipore, Saint Quentin-Fallavier, France) and careful rinsing of the filters with diluted quenching medium (50 mM TCA + 3 mM H3P0_4). The amount of radioactivity bound to the filter was estimated by liquid scintillation counting (Perkin Elmer TriCarb Counter). When starting from a calcium-deprived state (Fig. 4C,D), EGTA was added only one minute before starting phosphorylation to limit irreversible inactivation of the solubilized ATPase, although the presence of glycerol helps in protecting the enzyme from irreversible inactivation. For dephosphorylation kinetics, 1 mM “cold” Mg.ATP was added after a 30 s period of phosphorylation. For Ca^2+-dependency, we adjust the concentration of free calcium according to the Ca.EGTA constant as mentioned above, before triggering phosphorylation. […] Phosphorylations were done at 0 °C especially for inhibition by vanadate to prevent dissociation of vanadate and limit irreversible inactivation in absence of calcium.

[3] = target: T1, recombinant SERCA1a (recS1a); assay: Calcium binding at equilibrium by tryptophan fluorescence; set-up: species or system rabbit (expressed in S. cerevisiae); settings: average of three independent experiments; for Ca1/2 (tryptophan fluorescence), recS1a + pSLN: at equilibrium, pH 7, 20 °C, DDM, 20% glycerol, p=0.200 vs recS1a alone
Protocol: (§2) Intrinsic fluorescence of SERCA1a was measured with a SPEX Fluorolog spectrofluorometer (Horiba/Jobin–Yvon, Longjumeau, France) as described before. Briefly, signals were monitored with excitation and emission wavelength set at 295 and 320 nm, with bandwidths of 2 and 10 nm, respectively. Changes in tryptophan fluorescence were recorded at 20 °C after dilution of protein samples to a final concentration of about 6–7.5 µg/mL into a medium containing 50 mM MOPS-Tris pH 7, 100 mM KCl, 5 mM MgCl2, 20% glycerol (v/v) and 10 mg/mL DDM. In presence of SLN, recS1a and SLN were first mixed together and incubate for 1 h on ice before measurement. In absence of SLN, recS1a is supplemented with 0.07 mg/mL C12E8 to compensate the detergent present with SLN. The Maxchelator program was used for estimating [Ca^2+]free[59] (program available at https://somapp.ucdmc.ucdavis.edu/pharmacology/bers/maxchelator/downloads.htm). The dissociation constant of the Ca.EGTA complex was taken to be 0.4 µM at pH7 and was assumed to be the same in the presence of glycerol.

[4] = target: T1, recombinant SERCA1a (recS1a); assay: Calcium dependence of phosphoenzyme level; type: biochemical, rabbit (expressed in S. cerevisiae)
Protocol: as §1

[5] = target: T1, recombinant SERCA1a (recS1a); assay: Mg.ATP binding by tryptophan fluorescence; set-up: species or system rabbit (expressed in S. cerevisiae)
Protocol: as §2

SERCA1a [6] = settings: cited from earlier work
Source text: Effect on the turnover is less clear as it seems to highly depend on the system used for functional characterization. […] This post-translational modification is also present in pig SLN and presumably in a few other mammals and birds, as judged from the amino-acid sequences. Among the other hundred seq ...

SERCA1a [7] = settings: cross-linking experiments; cited from earlier work
Source text: An analysis of all the published data on biochemical characterization of PLB or SLN highlights heterogeneity in the results.

SERCA1a [8] = settings: cited from earlier work; remark: listed apart in the source
Source text: Besides its various roles in protein signalling and addressing, palmitoylation can also regulate oligomerisation processes of membrane proteins. Recent work has shown that other P-type ATPases regulatory subunits like phospholamban (PLB) and phospholemman (PLM) are palmitoylated[16],[17]. Acylation of PLB and PLM is functionally relevant by having an impact on the oligomerisation of the peptides, their association with their dedicated pumps (Ca^2+-ATPase or Na+, K+-ATPase, respectively) and on their lifetime.

| effect on proteinase K proteolysis [1] | effect on rate of dephosphorylation [2] | t1/2 of dephosphorylation ([2]; pSLN:SERCA1a 10:1 mol:mol, 1 mM cold Mg.ATP after 30 s phosphorylation, three replicates from two independent experiments, recS1a alone 2.4 +/- 0.4, p=0.064) [s] | Ca1/2 (tryptophan fluorescence), recS1a + pSLN [3] [µM] | Ca1/2 (tryptophan fluorescence), recS1a + pSLN ([3]; listed as Palm-SLN) | nH for calcium (tryptophan fluorescence), recS1a + pSLN [3] | nH for calcium (phosphoenzyme level), recS1a + pSLN ([4]; five independent experiments) | Ca1/2 (phosphoenzyme level), recS1a + pSLN ([4]; phosphorylation 15 s, varying calcium, five independent experiments, 36 data points per fit, p = 0.29) | EPmax (calcium dependence) ([4]; recS1a + pSLN, Fig. 4E, recS1a alone 3.13 ± 0.11) [nmoles EP/mg ATPase] | fluorescence change on 0.3 µM Mg.ATP, recS1a + pSLN ([5]; 0.3 µM Mg.ATP, increase of fluorescence in absence of pSLN) | fluorescence change on 300 µM Mg.ATP, recS1a + pSLN ([5]; 300 µM Mg.ATP, decrease of fluorescence in absence of pSLN) | Mg-ATP1/2 (affinity for Mg.ATP), recS1a + pSLN ([5]; calcium-deprived (2 mM EGTA), pH 7, 20 °C, DDM, 20% glycerol, three independent experiments, p = 0.045) | nH for Mg.ATP, recS1a + pSLN ([5]; three independent experiments) | Substance | apparent affinity for calcium in presence of SLN (SERCA1a [6]; 0.35 µM in absence of SLN) [µM] | Vmax in presence of SLN, increase reported by some authors (SERCA1a [6]; % of Vmax measured in absence of SLN, ref 13 and Supplementary Table 1) | cross-linking interaction with SERCA1a (SERCA1a [7]) | effect of phosphorylation of SLN:Thr5 on SERCA1a inhibition (SERCA1a [8]) |
| --- | --- | --- | --- | --- | --- | --- | --- | --- | --- | --- | --- | --- | --- | --- | --- | --- | --- |
| drastically slowed | No effect | 2.8 ± 0.6 | 4.5 | 4.48 +/- 0.52 µM | 1.96+/-0.20 | 0.74 ± 0.03 | 0.58 ± 0.05 µM and 0.58 µM | 3.19 ± 0.11 | no fluorescence intensity variation | increase of signal | 11 µM and 11.0 ± 1 µM | 0.95 ± 0.06 | pSLN: chemically synthesized S-palmitoylated rabbit sarcolipin, 31-residue single-spanning membrane peptide, palmitoylated on Cys9 (MERSTRELC(Palmitoyl)LNFTVVLITVILIWLLVRSYQY; UniProt P42532 1-31, looked up) |  |  |  |  |
|  | No effect |  |  |  |  |  |  |  |  |  |  |  | SLN: chemically synthesized non-palmitoylated rabbit sarcolipin; in cited literature results sarcolipin in general (MERSTRELCLNFTVVLITVILIWLLVRSYQY; UniProt P42532 1-31, looked up) | 0.51 | up to 140% | interaction of SLN with SERCA1a at all the major steps of the catalytic cycle | loss of inhibition of SERCA1a |
